# Assay results from the DeepSol protein solubility set.
# Experiment: soluble on expression in E. coli; label from the status in PepcDB or PDB records
row,Sequence,soluble on expression in E. coli
1,MAISNILPRKIMKNRTRQQSMAERHDYDQKEEKTDGGELVSSYMCSPETAAEEFEISKKLYAQLTGRSQSEKHDIIMYRIIQSFKPDEVSPEEAHKIGCELAMKFTGGQHQFVVATHTDKRHIHTHIEFNSTNLNCDAKFQNVKNSAFILRRMNDELCRAHGLSVIENPKKKARPQKEMAAAQYGVSHKKQLQQAIDRLLPECNHYEEFLAKMRAEGYEVVDGKNPGFRLPGWDRPTRVNRLGDDYTKTALRARITSQRRRLTSGKTAPKRTGRKVNLLIDIQAKLAAGKGAGYERWAKIFNLKEAAKTLNFLIENNLTDYDELALRAEQAENGFNAVSQKIKQLEARMAGIAQLKTHIIQYSKTREVYAAYKKSRHKKEFLAEHGAEIAQHEAAKKAFDALNGKAIPKVAQLSAEYAALLEEKREQYEQYKTLRQDMITYQTALRNMDKILGLEPPEQAQEKEQTKPER,not soluble
2,GNIESIENLQGIRALQQQAPQLLSSGLPNEQQFSLLKQAGVDVVINLMPDSSKDAHPDEGKLVTQAGMDYVYIPVDWQNPKVEDVEAFFAAMDQHKGKDVLVHCLANYRASAFAYLYQLKQGQNPNMAQTMTPWNDELAIYPKWQALLTEVSAKYGH,soluble
3,MALPKTGYTKTTADNFVIDSATVFTDFKYDKEKEEFTGIPMGATSGGVEIKTELSYRKVEVDGAYIMDVVGLNVLESATATMKANLIELTAENLRRSLNATMTDATTDEAPAGYKIIKPKRYLEEGDYIPNMAVVGIHNGTKQPIIVALDNGLVKSGLEIKTEDGKEVVIEQEITANASYEQLINDEFPFRIYYPSTSKNPIELTESL,not soluble
4,MGSDKIHHHHHHMYKHSIIPKPVSEYDLRLLRIFISVVEHGGFSSAANALGITRSTISVHMSNLETRMKLKLCLRGRGGFSLTEDGQAVYQAVLDLFATMDDFSLLIDSLGSELSGELIILCADQLDESKQHKMAQVIKKINDASPNLHLVLDGDSISNIEKALLKDKAHIALFPSYQQIEGLQYQPLFSESIYLCCGKQHPFFNQVDTAISEEILGQAAAIHPGINIDLAGKQQLEKLNLSAKSYQFDTRKAMILSGCYIGFMQQSFIQAELNRGEIRIIKPNSHHYQFRLSLVSKKTPREVKKVELLTNVFSQVFEL,not soluble
5,MPNDLKKELRELKETLEYLKKSFEVISQLAQAYIRLLNVYAEYGDLGIDVVIPEIKHDPIARDIVKILFDLRRANVSQIARELKGRRGKASRNTVRKKLKELEKLGVVKEVPGERGSVYTLSREVVKKWLDLIGIPINLLLEHHHHHH,soluble
6,MLLVSTGAAGAEVIYVEPGASIQAAVNNSTTGDFIIVKAGEYEENIVVNVSGVTVSSEPEKSGSVFIRAGDRNSSVFQVKADNVTISGFNITGSGEFFSTHEASSPRDSFPKDPDGQGVSDIPELRKTYSLGSGEVFISRSTEFDCPQAGICLDQVENCTIERNHIFENQYGVYLQGSMNNTLSNNTFFRNGILIDEGCSRNTAENNSIEEGNLIIGAHCWDNIISRNRLSNGGGIGIACCGGGNLVSNNEIINCSTGVDMYDTQARTVLCGNLITDCDYGIYLILVYDSRVYNNTISNSSRGIFLRENSQNNELSGNIINSSNESGIYLLDHCADNRIFNNYFNNTVNVKAENSKGNSWNITKAPGINIAEGPYLGGNFWADLNGTGYSQIAEDSDSDGICDLPYNVNGCDYDYLPLARLPFSPSLSGGNLKLLEHHHHHH,not soluble
7,MGSDKIHHHHHHMRWNRMNPFGSYKKVVSARSTLKEVLKKAQDGGIVSTAFIYGLENNLLDGVIVADNAGEFKAVPKVATTPEEVLEAAGTKYTVCPNISVLKSAVREYGCEKIGVVGTPCQVRAVRKLMKYPVGFRHVPDKIALIIGIFCMENFPYYGLKLIVEEHCGVKMEDVVKMDIGKGKFWVYTRWGETKAIKLKETHPYEQIACHVCTDYTAELADISTGSVGSPDGWSTVFIRTAKGEEIFNKMVEDGYLEVKPIEEVKPGLGLVEKLALQKKEKNMKEIEHRKELGLPIPY,not soluble
8,MRTVTGAILAMNLEVKDFVHRDVEEADRRLREIGARKILLQLPDGLKPYAFDYFTYLSQRYDVILSSSPVYGACDIGPSYLYDRVDAIVQVGHSIMRNVKYPRPVIFIEHYRTVDVEDINTEALKNYRRIGLIYSIQYRPVADRVKRILESKGFEVIIGRSDRRMTYDGQVLGCNFSSVHSVEAEVEAFVIVSTGSFHALGSQISTERPVFLLDLNEMSLRSMEKEADTFIRKRYAQIYRAMDAKRICFLVDTRIGQRREKLARMLMDRARDLGKEAVLAYTDNISDQDIQNMGCDLAVYTGCPRVPIDDQDRFTVPVLTPAEFSMAFFKSSKRYVLDEIVSVDEFTDQLEHHHHHH,not soluble
9,MKRVLVAMSGGVDSSVAALLLKEAGYEVVGAMMRFWPDLPPPSLEAGKPRAWESCCTPDAAYEARRVADRLGIPFYLLDYREVFEEEIISPFLQDYAQGRTPNPCARCNTFVKFGALLKQARRLGLDYVATGHYVRKEGLALLRGLDPHKDQTYFLWGTPKEALPHLLFPVGGLTKPEVRALAEKAGLPTARRPESQNLCFVAGDLKGFLKERLKPRPGPLVDALTGEVVGEHEGASLYTLGQRKGLGLYKTHLERYVVGVDPERNVVYVGPKEACYFEGLEGEGLNLLAELPEEVEVQVRYRTPPVRAKVESLSPLRLRFAHPVFAVTPGQSAVFYRGERLLGGAVIRRGLYNLAGLEDPRALTFS,soluble
10,GPGSMWRITRLCCKQLIRDESLVSLPPAVHRLEVYRNAVSVDCEERICAELGLLLQREGHTAFAEGSTPQQKIVKHTYLELHGAHKDFTEVKSFQRKETRRLPGLLWSPTLVSWMNEVVPRVRVFPVGVMPDTARVVEHNMTGYEMHMEHPTVGCSFLYLSLLSDTVLTFDDEATGRYGEVFLPQRALMCCSGEIRWGWRFGEQSREVHTFVNASGVRRVVEPDLRLSVQLWKFTPQLLDARLLQDRVEESMKQREAEESNEVVETIAVDRKKNEEEHKGSASSHALFSALAEKGASGTGPLGGEYVEGRTQACKGVEGKSMTMEDIGRDYNTYKQQFQNVHGVLQEMKALQDAGQPINDMWLRKRILDGQKDDNHDAQDGFDPNDVEGTWDRVDAKARFYKARLKGMDYDGTANSNSSMPDVTEDAPLDMKKTIQKIAPLVKDGDKILASLPCGQ,not soluble
11,MSLKVLIKTDLVLGAPKTLRDVYIGIDEGQIKVISKEKPEDYDYAEYVIGGKNRVVAPGFVTTHSFLYLYPFRYRVFSGKANAFQLMSTLTPNDIYYFSLMGAYHLLKTGVTTVVTSGPNLDMIARAISEVGLRPVLAVGVDCPDSKEDWEREFTTLYNRWSSKNENRVILRLCSNEYSKEVFELSQQYDFPVLLERFVSLENISGNPINVIGLGGGARKDLDIIKQKGFHLASTPSYEVSQFPLSQYKPSISLDLSPTFDIRHEVSTSITRLILTPEEALNAMTIWGLLQLKYNDRGVLENGKVADLVIFEVKEPPTFPLDYESPYESIVFNLSTPETVLVSGEAILDGGVPLNIGIKHIEKAIERLEDIDKKVTEGHHHHHH,soluble
12,MVPPKLKQALELFKSLPKELRSQVLLEYAAKVPPPPPGVELERVHECQTPFFVHADVEGGKVRLYFHVPDEAPTVKAFAGLLREGLEGESPEAVLEVPPGFYRGYGLEEFFTPLRLRGLEAALLRLQAQVRKALTS,soluble
13,MSGEDDYNSDDEANKNLSKKELQELKRKQQKSKKKKESKKRAKATKQAEIETREEPKKEEENGDDLDVEIDYIGETIEIEPDNPHAQYFSAIFDAFKISTDSEDGFSYGHHVSKGEKKDDLGKVGQAERIIQEEMEERAKENTEEKLSRRKLRISLQPSIAKLKETTLRADVVEWADVTSRDPYLLVAMKSYRNSVPVPRHWNAKRKYLAGKRGFERPPFELPDFIKRTGIQDMREALLEKEESQSLKSKMRERARPKLGKIDIDYQKLHDAFFKWQTKPAMTKMGELYYEGKEMEAMMRDKKPGEMSDELRIALGMPIGSNAFKFPPPWLIAMQRYGPPPSFPHIKIPGLNAPIPEGCAFGYHAGGWGKPPVDEYGHPLYGDVFGLAAPAFEPEDESQIERRYWGEIGSDESSDEEESEEEEHADDDDADVEGGFQTPAPVEGMITPSGMTTGITGIETPDTIELRKGKESSVLGTDTPAAAYHIIPEKKNERIGGQMMASSHTYDLSKKHAVRDDGVQISLDPESIDMDEQGLAARYEEQLRKQKHRDDDDEDREDLTDMVAEHAAKQNRKRKVQDDKKNKTSSSSSSGSSGKKHKDFKF,not soluble
14,MAFLSTSVLIKCCILLLAGGLAESLTLGLAPALSTHSSGVSTQSVDLSQIKRGDEIQAHCLTPAETEVTECAGILKDVLSKNLHELQGLCNVKNKMGVPWVSVEELGQEIITGRLPFPSVGGTPVNDLVRVLVVAESNTPEETPEEEFYAYVELQTELYTFGLSDDNVVFTSDYMTVWMIDIPKSYVDVGMLTRATFLEQWPGAKVTVMIPYSSTFTWCGELGAISEESAPQPSLSARSPVCKNSARYSTSKFCEVDGCTAETGMEKMSLLTPFGGPPQQAKMNTCPCYYKYSVSPLPAMDHLILADLAGLDSLTSPVYVMAAYFDSTHENPVRPSSKLYHCALQMTSHDGVWTSTSSEQCPIRLVEGQSQNVLQVRVAPTSMPNLVGVSLMLEGQQYRLEYFGDH,soluble
15,MGSDKIHHHHHHMLKKESIHFINKNRSLIVCEDNFVYLLPCIQLRNWISNFTISFPNQTIISDNYTIIPHGSVTLVFFYDATGLHSLLFGPTTKPKTVGNIANRCDVILIIEFQPAGFFPLIGIQQSELIDKVVPFSIINTSLDLEIKKIFNESLSIDKLILKLEELLISNIKIEYSYEFILAIQLIIQNSGNISSQEISKKVFYSSRHLNRLFNQYLGLSMKSFSRLVRINKSIKLLNNNKTSLMSICNELGFYDIPHFIKDFKIVCGITPQKYRANMSDFYSEIAKF,not soluble
16,MSLSNDRYSMSFTTGSLFHRESVKLAALYLDLGDWNSVRDKVIAENLLQTRTLNTLKRVCREIISRLRTMNPGELDFLVEGSHQEQAYLLWLAVCRRYRFIADFAVEVLRERYITLKADLTHEDFDSFFNRKSEWHLELDEITPATRSKLRQVLFKILREADLLAANNMINAAMLSPRLSDVIHRGSRRDVSYFPLFESDLKGMAKEGHHHHHH,soluble
17,MSDIAPAAHSPYIPPTPEVGLPLWLLAELTYRCPLQCPYCSNPLDFARQGQELTTEQWFKVMQEAREMGAAQIGFSGGEPLVRQDLAELIAEARRLGFYTNLITSGIGLTEEKIIAFKKAGLDHIQISFQASDEQVNNMLAGSKKAFAQKLEMAKAVKKHGYPMVLNFVTHRHNIDRIDKIIELCLALEADFVELATCQFYGWAHLNRVGLLPTKDQLVRAEAVTNEYRDQLAAQDHPCKLIFVTPDYYEERPKACMNGWGNIFLTVTPDGTALPCHGARQMPIQFPNVREHSMQHIWYDSFGFNRFRGYDWMPEPCRSCDEKEKDFGGCRCQAFMLTGDAANADPVCSKSYHHGIITQARDESETATQTIEELAFRNDRNSRLIAKSS,not soluble
18,MGSDKIHHHHHHMSKRQFGLIYISSYQARLFIVDLKKLAIIEQLSSVQFVQGGKKFEVYENELPRLTDALIGFKRKIAEYGIDNYKVYGNRQLLDKISARYLADQIKVRTGLEIEWLNGAQIAYYKIIAGMALPQFSELADDEFTYLLSMGSAMLNLTLFKGQHYLSTWNFALGPEEIEEMAAMTRDTPSDPIDIIGDYISRKLVSFKTIEKPTGKARIIIQHVFGRGEQSLRPQEKARVIDLKQFAGVYSDFREAPDQYLMEKYELDTDSLARMKPTIVLINQLVKIIKPHMMTLTQSSAITGLMIQEAARLKYRPDEYSTIVLTATKNIARRYESGGQHINLSNKFALHIFDRLAHAGMVDRRDRQLLEIAARLHDIGNFINFHNHYEHAAYIVGANQIIGLSDRENEMLLSILKHQDITNLNADEREYRHLDPALQVRVAKLAAILRLANSLDASRKQKISKIVVSIKDEKMLIVVTSKRDLTLERWVFEKNVNLAEAVFGMKIAMKQKRGK,not soluble
